“And” between values parts separate entries of the source, which are not always exact repeats. Equal entries are not always repeated.
B1: Cytochrome b5 wild type, P00171 (protein)
chain: MAEESSKAVKYYTLEEIQKHNNSKSTWLILHYKVYDLTKFLEEHPGGEEVLREQAGGDATENFEDVGHSTDARELSKTFIIGELHPDDRSKITKPSESIITTIDSNPSWWTNWLIPAISALFVALIYHLYTSEN
B2: Cytochrome b5 type B wild type, P04166 (protein)
chain: MATPEASGSGRNGQGSDPAVTYYRLEEVAKRNTAEETWMVIHGRVYDITRFLSEHPGGEEVLLEQAGADATESFEDVGHSPDAREMLKQYYIGDVHPNDLKPKDGDKDPSKNNSCQSSWAYWIVPIVGAILIGFLYRHFWADSKSS

Settings: pH 7, CD, transition: 2, reversible: yes, whole UniProt chain shown; for denaturant midpoint (higher = more stable): 25 °C, GdnHCl; for Tm: Thermal
[1] = Rattus norvegicus, potassium phosphate buffer

Row | Protein | denaturant midpoint (higher = more stable) (Bos taurus, MOPS buffer) | Tm (Bos taurus, MOPS buffer) | denaturant midpoint (higher = more stable) [1] | Tm [1]
1 | B1 | 2.99 M and 3.05 M | 73.1 °C |  | 
2 | B2 |  |  | 4.09 M and 4.03 M | 87 °C

— FireProtDB (doi:10.1021/bi010636i)
